As a reminder, the Kd is the concentration at which binding is half-saturated. Lower therefore signals tighter binding.

This test has as its target GFP-tagged MtrB (cytosolic catalytic domain of MtrB with GFP downstream) (Mycobacterium tuberculosis). The test can be described thus: MST.
As for “MtrB^H305Q (phosphorylation site mutant, cytosolic catalytic domain) (domain or fragment)”, the Kd was 410 nM.

In turn, “MtrB^N419D (mutant defective in ATP binding, cytosolic catalytic domain) (domain or fragment)” had a Kd of 770 nM.

The substance “MtrB wild type (cytosolic catalytic domain) (domain or fragment)” yielded a dissociation constant Kd of 1170 nM.

The values are drawn from PMC5956149.
